Tests used:
Test in all cases: SEC; FSEC of ~10% of the protein dialysed into non-reducing buffers with the various ligands; 150 mM NaCl, 20 mM Tris-HCl pH 8.0, 1 mM C12M, lipid
[1] = target: GluA2_(C589A-Thr) I209C (rat)
[2] = target: GluA2_(C589A-Thr) V215C (rat)
[3] = target: GluA2_(C589A-Thr) I211C (rat)
[4] = target: GluA2_(C589A-Thr) G212C (rat)
[5] = target: the molecule itself

Row | Molecule | stoichiometry N [5] | also measured
1 | GluA2_(C589A-Thr) I209C (receptor) | – | stoichiometry N [1]: 4
2 | GluA2_(C589A-Thr) V215C (receptor) | – | stoichiometry N [2]: 4
3 | GluA2_(C589A-Thr) I211C (receptor) | – | stoichiometry N [3]: 4
4 | GluA2_(C589A-Thr) G212C (receptor) | – | stoichiometry N [4]: 4
5 | GluA2_(C589A-Thr) K663C (receptor, rat, signal peptide in the construct; AMPA receptor subunit GluA2, flip form (GluA2i), rat, NP_058957, full length including the native signal peptide; extra residues left from the thrombin cleavage site at the distal C-terminus after digestion; Single cysteine substitution in m1, LBD dimer-dimer interface; source: HEK293 GnTI- cells, baculovirus-transduced (BacMam), purified (streptactin resin, …)) VSSNSIQIGGLFPRGADQEYSAFRVGMVQFSTSEFRLTPHIDNLEVANSFAVTNAFCSQFSRGVYAIFGFYDKKSVNTITSFCGTLHVSFITPSFPTDGTHPFVIQMRPDLKGALLSLIEYYQWDKFAYLYDSDRGLSTLQAVLDSAAEKKWQVTAINVGNINNDKKDETYRSLFQDLELKKERRVILDCERDKVNDIVDQVITIGKHVKGYHYIIANLGFTDGDLLKIQFGGANVSGFQIVDYDDSLVSKFIERWSTLEEKEYPGAHTATIKYTSALTYDAVQVMTEAFRNLRKQRIEISRRGNAGDCLANPAVPWGQGVEIERALKQVQVEGLSGNIKFDQNGKRINYTINIMELKTNGPRKIGYWSEVDKMVVTLTELPSGNDTSGLENKTVVVTTILESPYVMMKKNHEMLEGNERYEGYCVDLAAEIAKHCGFKYKLTIVGDGKYGARDADTKIWNGMVGELVYGKADIAIAPLTITLVREEVIDFSKPFMSLGISIMIKKPQKSKPGVFSFLDPLAYEIWMCIVFAYIGVSVVLFLVSRFSPYEWHTEEFEDGRETQSSESTNEFGIFNSLWFSLGAFMQQGADISPRSLSGRIVGGVWWFFTLIIISSYTANLAAFLTVERMVSPIESAEDLSKQTEIAYGTLDSGSTKEFFRRSCIAVFDKMWTYMRSAEPSVFVRTTAEGVARVRKSKGKYAYLLESTMNEYIEQRKPCDTMKVGGNLDSKGYGIATPKGSSLGTPVNLAVLKLSEQGVLDKLKNKWWYDKGECGAKDSGSKEKTSALSLSNVAGVFYILVGGLGLAMLVALIEFCYKSRAEAKRMKVAKNPQNINPSSSQNSQNFATYKEGYNVYGIESVKIGLVPR | 4 | –
6 | GluA2_(C589A-Thr) I664C (receptor, rat, signal peptide in the construct; AMPA receptor subunit GluA2, flip form (GluA2i), rat, NP_058957, full length including the native signal peptide; extra residues left from the thrombin cleavage site at the distal C-terminus after digestion; Single cysteine substitution in m1, LBD dimer-dimer interface; source: HEK293 GnTI- cells, baculovirus-transduced (BacMam), purified (streptactin resin, …)) VSSNSIQIGGLFPRGADQEYSAFRVGMVQFSTSEFRLTPHIDNLEVANSFAVTNAFCSQFSRGVYAIFGFYDKKSVNTITSFCGTLHVSFITPSFPTDGTHPFVIQMRPDLKGALLSLIEYYQWDKFAYLYDSDRGLSTLQAVLDSAAEKKWQVTAINVGNINNDKKDETYRSLFQDLELKKERRVILDCERDKVNDIVDQVITIGKHVKGYHYIIANLGFTDGDLLKIQFGGANVSGFQIVDYDDSLVSKFIERWSTLEEKEYPGAHTATIKYTSALTYDAVQVMTEAFRNLRKQRIEISRRGNAGDCLANPAVPWGQGVEIERALKQVQVEGLSGNIKFDQNGKRINYTINIMELKTNGPRKIGYWSEVDKMVVTLTELPSGNDTSGLENKTVVVTTILESPYVMMKKNHEMLEGNERYEGYCVDLAAEIAKHCGFKYKLTIVGDGKYGARDADTKIWNGMVGELVYGKADIAIAPLTITLVREEVIDFSKPFMSLGISIMIKKPQKSKPGVFSFLDPLAYEIWMCIVFAYIGVSVVLFLVSRFSPYEWHTEEFEDGRETQSSESTNEFGIFNSLWFSLGAFMQQGADISPRSLSGRIVGGVWWFFTLIIISSYTANLAAFLTVERMVSPIESAEDLSKQTEIAYGTLDSGSTKEFFRRSKCAVFDKMWTYMRSAEPSVFVRTTAEGVARVRKSKGKYAYLLESTMNEYIEQRKPCDTMKVGGNLDSKGYGIATPKGSSLGTPVNLAVLKLSEQGVLDKLKNKWWYDKGECGAKDSGSKEKTSALSLSNVAGVFYILVGGLGLAMLVALIEFCYKSRAEAKRMKVAKNPQNINPSSSQNSQNFATYKEGYNVYGIESVKIGLVPR | 4 | –
7 | GluA2_(C589A-Thr) A665C (receptor, rat, signal peptide in the construct; AMPA receptor subunit GluA2, flip form (GluA2i), rat, NP_058957, full length including the native signal peptide; extra residues left from the thrombin cleavage site at the distal C-terminus after digestion; Single cysteine substitution in m1, LBD dimer-dimer interface; source: HEK293 GnTI- cells, baculovirus-transduced (BacMam), purified (streptactin resin, …)) VSSNSIQIGGLFPRGADQEYSAFRVGMVQFSTSEFRLTPHIDNLEVANSFAVTNAFCSQFSRGVYAIFGFYDKKSVNTITSFCGTLHVSFITPSFPTDGTHPFVIQMRPDLKGALLSLIEYYQWDKFAYLYDSDRGLSTLQAVLDSAAEKKWQVTAINVGNINNDKKDETYRSLFQDLELKKERRVILDCERDKVNDIVDQVITIGKHVKGYHYIIANLGFTDGDLLKIQFGGANVSGFQIVDYDDSLVSKFIERWSTLEEKEYPGAHTATIKYTSALTYDAVQVMTEAFRNLRKQRIEISRRGNAGDCLANPAVPWGQGVEIERALKQVQVEGLSGNIKFDQNGKRINYTINIMELKTNGPRKIGYWSEVDKMVVTLTELPSGNDTSGLENKTVVVTTILESPYVMMKKNHEMLEGNERYEGYCVDLAAEIAKHCGFKYKLTIVGDGKYGARDADTKIWNGMVGELVYGKADIAIAPLTITLVREEVIDFSKPFMSLGISIMIKKPQKSKPGVFSFLDPLAYEIWMCIVFAYIGVSVVLFLVSRFSPYEWHTEEFEDGRETQSSESTNEFGIFNSLWFSLGAFMQQGADISPRSLSGRIVGGVWWFFTLIIISSYTANLAAFLTVERMVSPIESAEDLSKQTEIAYGTLDSGSTKEFFRRSKICVFDKMWTYMRSAEPSVFVRTTAEGVARVRKSKGKYAYLLESTMNEYIEQRKPCDTMKVGGNLDSKGYGIATPKGSSLGTPVNLAVLKLSEQGVLDKLKNKWWYDKGECGAKDSGSKEKTSALSLSNVAGVFYILVGGLGLAMLVALIEFCYKSRAEAKRMKVAKNPQNINPSSSQNSQNFATYKEGYNVYGIESVKIGLVPR | 4 | –
8 | GluA2_(C589A-Thr) R628C (receptor, rat, signal peptide in the construct; AMPA receptor subunit GluA2, flip form (GluA2i), rat, NP_058957, full length including the native signal peptide; extra residues left from the thrombin cleavage site at the distal C-terminus after digestion; Single cysteine substitution in m1, LBD-TMD linker region (M3-S2 linker); source: HEK293 GnTI- cells, baculovirus-transduced (BacMam), purified (streptactin …)) VSSNSIQIGGLFPRGADQEYSAFRVGMVQFSTSEFRLTPHIDNLEVANSFAVTNAFCSQFSRGVYAIFGFYDKKSVNTITSFCGTLHVSFITPSFPTDGTHPFVIQMRPDLKGALLSLIEYYQWDKFAYLYDSDRGLSTLQAVLDSAAEKKWQVTAINVGNINNDKKDETYRSLFQDLELKKERRVILDCERDKVNDIVDQVITIGKHVKGYHYIIANLGFTDGDLLKIQFGGANVSGFQIVDYDDSLVSKFIERWSTLEEKEYPGAHTATIKYTSALTYDAVQVMTEAFRNLRKQRIEISRRGNAGDCLANPAVPWGQGVEIERALKQVQVEGLSGNIKFDQNGKRINYTINIMELKTNGPRKIGYWSEVDKMVVTLTELPSGNDTSGLENKTVVVTTILESPYVMMKKNHEMLEGNERYEGYCVDLAAEIAKHCGFKYKLTIVGDGKYGARDADTKIWNGMVGELVYGKADIAIAPLTITLVREEVIDFSKPFMSLGISIMIKKPQKSKPGVFSFLDPLAYEIWMCIVFAYIGVSVVLFLVSRFSPYEWHTEEFEDGRETQSSESTNEFGIFNSLWFSLGAFMQQGADISPRSLSGRIVGGVWWFFTLIIISSYTANLAAFLTVECMVSPIESAEDLSKQTEIAYGTLDSGSTKEFFRRSKIAVFDKMWTYMRSAEPSVFVRTTAEGVARVRKSKGKYAYLLESTMNEYIEQRKPCDTMKVGGNLDSKGYGIATPKGSSLGTPVNLAVLKLSEQGVLDKLKNKWWYDKGECGAKDSGSKEKTSALSLSNVAGVFYILVGGLGLAMLVALIEFCYKSRAEAKRMKVAKNPQNINPSSSQNSQNFATYKEGYNVYGIESVKIGLVPR | 4 | –
9 | GluA2_(C589A-Thr) A621C (receptor, rat, signal peptide in the construct; AMPA receptor subunit GluA2, flip form (GluA2i), rat, NP_058957, full length including the native signal peptide; extra residues left from the thrombin cleavage site at the distal C-terminus after digestion; source: HEK293 GnTI- cells, baculovirus-transduced (BacMam), purified (streptactin resin, thrombin digestion, SEC Superose 6); not shown: eGFP, C-terminal, …) VSSNSIQIGGLFPRGADQEYSAFRVGMVQFSTSEFRLTPHIDNLEVANSFAVTNAFCSQFSRGVYAIFGFYDKKSVNTITSFCGTLHVSFITPSFPTDGTHPFVIQMRPDLKGALLSLIEYYQWDKFAYLYDSDRGLSTLQAVLDSAAEKKWQVTAINVGNINNDKKDETYRSLFQDLELKKERRVILDCERDKVNDIVDQVITIGKHVKGYHYIIANLGFTDGDLLKIQFGGANVSGFQIVDYDDSLVSKFIERWSTLEEKEYPGAHTATIKYTSALTYDAVQVMTEAFRNLRKQRIEISRRGNAGDCLANPAVPWGQGVEIERALKQVQVEGLSGNIKFDQNGKRINYTINIMELKTNGPRKIGYWSEVDKMVVTLTELPSGNDTSGLENKTVVVTTILESPYVMMKKNHEMLEGNERYEGYCVDLAAEIAKHCGFKYKLTIVGDGKYGARDADTKIWNGMVGELVYGKADIAIAPLTITLVREEVIDFSKPFMSLGISIMIKKPQKSKPGVFSFLDPLAYEIWMCIVFAYIGVSVVLFLVSRFSPYEWHTEEFEDGRETQSSESTNEFGIFNSLWFSLGAFMQQGADISPRSLSGRIVGGVWWFFTLIIISSYTANLCAFLTVERMVSPIESAEDLSKQTEIAYGTLDSGSTKEFFRRSKIAVFDKMWTYMRSAEPSVFVRTTAEGVARVRKSKGKYAYLLESTMNEYIEQRKPCDTMKVGGNLDSKGYGIATPKGSSLGTPVNLAVLKLSEQGVLDKLKNKWWYDKGECGAKDSGSKEKTSALSLSNVAGVFYILVGGLGLAMLVALIEFCYKSRAEAKRMKVAKNPQNINPSSSQNSQNFATYKEGYNVYGIESVKIGLVPR | 4 | –
10 | GluA2_(C589A-Thr) (receptor, rat, signal peptide in the construct; AMPA receptor subunit GluA2 (GluRB, GluR2), flip form (GluA2i), rat, NP_058957, full length including the native signal peptide; extra residues left from the thrombin cleavage site (GLVPRG) at the distal C-terminus after digestion; Tetrameric membrane protein in C12M detergent with lipid; Purified under reducing conditions; also called WT; parent; source: HEK293 …) VSSNSIQIGGLFPRGADQEYSAFRVGMVQFSTSEFRLTPHIDNLEVANSFAVTNAFCSQFSRGVYAIFGFYDKKSVNTITSFCGTLHVSFITPSFPTDGTHPFVIQMRPDLKGALLSLIEYYQWDKFAYLYDSDRGLSTLQAVLDSAAEKKWQVTAINVGNINNDKKDETYRSLFQDLELKKERRVILDCERDKVNDIVDQVITIGKHVKGYHYIIANLGFTDGDLLKIQFGGANVSGFQIVDYDDSLVSKFIERWSTLEEKEYPGAHTATIKYTSALTYDAVQVMTEAFRNLRKQRIEISRRGNAGDCLANPAVPWGQGVEIERALKQVQVEGLSGNIKFDQNGKRINYTINIMELKTNGPRKIGYWSEVDKMVVTLTELPSGNDTSGLENKTVVVTTILESPYVMMKKNHEMLEGNERYEGYCVDLAAEIAKHCGFKYKLTIVGDGKYGARDADTKIWNGMVGELVYGKADIAIAPLTITLVREEVIDFSKPFMSLGISIMIKKPQKSKPGVFSFLDPLAYEIWMCIVFAYIGVSVVLFLVSRFSPYEWHTEEFEDGRETQSSESTNEFGIFNSLWFSLGAFMQQGADISPRSLSGRIVGGVWWFFTLIIISSYTANLAAFLTVERMVSPIESAEDLSKQTEIAYGTLDSGSTKEFFRRSKIAVFDKMWTYMRSAEPSVFVRTTAEGVARVRKSKGKYAYLLESTMNEYIEQRKPCDTMKVGGNLDSKGYGIATPKGSSLGTPVNLAVLKLSEQGVLDKLKNKWWYDKGECGAKDSGSKEKTSALSLSNVAGVFYILVGGLGLAMLVALIEFCYKSRAEAKRMKVAKNPQNINPSSSQNSQNFATYKEGYNVYGIESVKIGLVPR | 4 | –

Source: paper PMC4703952, “Probing Intersubunit Interfaces in AMPA-subtype Ionotropic Glutamate Receptors” (Scientific Reports, 2016)
